Experimental data taken from publication PMC3548793, “CK2 Phosphorylates Sec31 and Regulates ER-To-Golgi Trafficking” (PLoS ONE, 2013).
Where a chain is given by its changes, count along the chain named. Numbers in names are those of the source.

Molecular target: T1, GFP-tagged Sec23 (UniProt Q15436 1-765)
T1 construct: Sec23a; plasmid YFP-Sec23a was a gift; The results and legends call it GFP-tagged Sec23; the only Sec23 plasmid named in the methods is YFP-Sec23a; also called GFP-Sec23; YFP-Sec23a; source: HEK293, transfected, in lysate
T1 sequence (Q15436 whole entry): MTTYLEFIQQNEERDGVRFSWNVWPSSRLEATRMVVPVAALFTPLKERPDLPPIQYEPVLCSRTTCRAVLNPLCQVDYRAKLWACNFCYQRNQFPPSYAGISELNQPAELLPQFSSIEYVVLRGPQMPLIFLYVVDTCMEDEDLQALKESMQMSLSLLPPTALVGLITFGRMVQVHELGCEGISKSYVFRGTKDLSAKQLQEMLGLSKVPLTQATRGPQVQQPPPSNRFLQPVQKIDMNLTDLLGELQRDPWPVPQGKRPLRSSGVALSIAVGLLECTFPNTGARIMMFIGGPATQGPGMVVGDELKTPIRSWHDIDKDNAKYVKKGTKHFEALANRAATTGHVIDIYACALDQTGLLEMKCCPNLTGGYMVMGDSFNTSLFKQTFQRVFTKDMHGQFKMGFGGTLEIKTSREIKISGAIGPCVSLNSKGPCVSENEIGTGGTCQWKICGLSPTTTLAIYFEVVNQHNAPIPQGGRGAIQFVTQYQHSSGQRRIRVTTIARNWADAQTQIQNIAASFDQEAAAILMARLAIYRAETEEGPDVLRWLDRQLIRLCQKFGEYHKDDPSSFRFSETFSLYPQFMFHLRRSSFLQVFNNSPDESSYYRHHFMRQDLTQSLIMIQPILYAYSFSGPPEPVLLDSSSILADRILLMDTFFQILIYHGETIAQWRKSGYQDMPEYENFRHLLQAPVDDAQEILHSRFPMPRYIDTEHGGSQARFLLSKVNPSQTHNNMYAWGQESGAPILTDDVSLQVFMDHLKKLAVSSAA
Experiment: co-IP; HEK293 cells co-transfected with FLAG-tagged Sec31 (WT or mutants) and GFP-tagged Sec23 or GFP-Sec13; GFP-tagged protein immunoprecipitated with anti-GFP beads, blot with anti-FLAG; 10 mM HEPES-KOH pH 7.4, 100 mM KCl, 0.1 mM DTT, 2.5 mM MgCl2, 1% Triton X-100, 30 min at 4°C; in Figure 6 cells transfected two days before with or without siRNA1 to CK2 alpha1
Settings: partners not purified

B1: FLAG-tagged wild type (WT) Sec31 (natural protein, human, UniProt O94979 1-1220, looked up)
chain: MKLKEVDRTAMQAWSPAQNHPIYLATGTSAQQLDATFSTNASLEIFELDLSDPSLDMKSCATFSSSHRYHKLIWGPYKMDSKGDVSGVLIAGGENGNIILYDPSKIIAGDKEVVIAQNDKHTGPVRALDVNIFQTNLVASGANESEIYIWDLNNFATPMTPGAKTQPPEDISCIAWNRQVQHILASASPSGRATVWDLRKNEPIIKVSDHSNRMHCSGLAWHPDVATQMVLASEDDRLPVIQMWDLRFASSPLRVLENHARGILAIAWSMADPELLLSCGKDAKILCSNPNTGEVLYELPTNTQWCFDIQWCPRNPAVLSAASFDGRISVYSIMGGSTDGLRQKQVDKLSSSFGNLDPFGTGQPLPPLQIPQQTAQHSIVLPLKKPPKWIRRPVGASFSFGGKLVTFENVRMPSHQGAEQQQQQHHVFISQVVTEKEFLSRSDQLQQAVQSQGFINYCQKKIDASQTEFEKNVWSFLKVNFEDDSRGKYLELLGYRKEDLGKKIALALNKVDGANVALKDSDQVAQSDGEESPAAEEQLLGEHIKEEKEESEFLPSSGGTFNISVSGDIDGLITQALLTGNFESAVDLCLHDNRMADAIILAIAGGQELLARTQKKYFAKSQSKITRLITAVVMKNWKEIVESCDLKNWREALAAVLTYAKPDEFSALCDLLGTRLENEGDSLLQTQACLCYICAGNVEKLVACWTKAQDGSHPLSLQDLIEKVVILRKAVQLTQAMDTSTVGVLLAAKMSQYANLLAAQGSIAAALAFLPDNTNQPNIMQLRDRLCRAQGEPVAGHESPKIPYEKQQLPKGRPGPVAGHHQMPRVQTQQYYPHGENPPPPGFIMHGNVNPNAAGQLPTSPGHMHTQVPPYPQPQPYQPAQPYPFGTGGSAMYRPQQPVAPPTSNAYPNTPYISSASSYTGQSQLYAAQHQASSPTSSPATSFPPPPSSGASFQHGGPGAPPSSSAYALPPGTTGTLPAASELPASQRTGPQNGWNDPPALNRVPKKKKMPENFMPPVPITSPIMNPLGDPQSQMLQQQPSAPVPLSSQSSFPQPHLPGGQPFHGVQQPLGQTGMPPSFSKPNIEGAPGAPIGNTFQHVQSLPTKKITKKPIPDEHLILKTTFEDLIQRCLSSATDPQTKRKLDDASKRLEFLYDKLREQTLSPTITSGLHNIARSIETRNYSEGLTMHTHIVSTSNFSETSAFMPVLKVVLTQANKLGV
notes: Sec31a, human, cDNA clone KIAA 0905 from Kazusa DNA Research Institute, subcloned into p3×FLAG-CMV; In the cells partly phosphorylated (S527, S799, S1163, T1165 found by mass spectrometry on endogenous Sec31); also called FLAG-Sec31; human Sec31a; source: HEK293, transfected, in lysate
  fold change of Sec31 co-precipitated with Sec23, CK2 depleted by siRNA1 against not depleted: ~3 fold

B2: FLAG-tagged Sec31 S527A/S799A (natural protein, human, UniProt O94979 1-1220, looked up)
chain: B1 chain with S527A, S799A
notes: Sec31a, human, cDNA clone KIAA 0905, point mutations by QuikChange; also called S527/S799; source: HEK293, transfected, in lysate
  fold change of Sec31 co-precipitated with Sec23 against wild type: 3 fold
